Several values for one entry are separate records, joined by “and”; a condition that tells them apart may be missing. Equal entries are not always repeated.
Tests used:
[1] = Isothermal titration calorimetry (ITC); type: binding
Method: For ITC experiments, wild-type G-aptamer and the mutant RNAs were synthesized by in vitro transcription of the DNA template and purified by denaturing polyacrylamide gel electrophoresis (PAGE). The ligand guanine was introduced in the syringe, while the RNA into the sample cell at a final concentration of 10 μM and 1 μM respectively. The concentrations were determined by absorbance reading using ε260=12010 M^−1 cm^−1 (guanine) and ε260=711400 M^−1 cm^−1 (RNA). The buffer in the syringe and the sample cell contained 50 mM K^+ Hepes (pH 7.5), 100 mM KCl, and 10 mM MgCl2. Binding reactions were performed at 30° C. on a MicroCal iTC200 instrument (Malvern) with a reference power of 6 μcal/sec, an initial delay of 60 secs and a stirring speed of 750 rpm. Guanine was titrated into the sample cell in 16 injections (2.5 μl each). The injection rate was 0.5 μl/sec and the spacing between the injections was maintained at 120 sec. Data was baseline corrected and fitted to a single-site binding model to obtain association constant (KA), stoichiometry (n) and binding enthalpy, ΔH. The dissociation constant (KD) and the binding free energy, ΔG was obtained from the fitted parameters using the following relations. All data analysis was performed using the Origin ITC software.
The ITC results are reported as mean±standard deviation from three independent experiments.

[2] = Constant-force (CF) single-molecule optical tweezers folding assay of guanine-aptamer RNAs in guanine buffer; type: physicochemical; settings: for Folding rate kf / Transition distance ΔX / Unfolding rate ku / ΔG (0): 200 nM G; for ΔG (0): zero force
From the text: The aptamer folding was monitored in real time using a constant-force (CF) assay. Equilibrium sampling techniques provide unprecedented insights into the rare events in the course of folding that are otherwise difficult to identify. The technique also allows for determination of the kinetic rates that has not been fully investigated in the guanine riboswitch. The relative dynamics of the helices have been investigated in ensemble and smFRET experiments, which indicated a non-dynamic P1-P3, upon which the P2 helix switches conformations. As shown in FIG. 6A (left panel), the RNA oscillated between the linear and the hairpin conformations (E↔D↔C) at 13 pN. The distances ΔXED=7.1±0.4 nm and ΔXDC=7.9±0.4 nm correspond to the folding of a 17±1 nt (P2) and 19±1 nt (P3) respectively (FIGS. 7A-B). The conversion of distances to nucleotides in CF assay are described in Table 2.
A miniaturized dual beam optical tweezers instrument was constructed with a sampling rate of 0.4, 4 and 40 kHz. Typically, in the tweezers set up (FIGS. 2A-E), a single-molecule of RNA is held between two beads via ˜550 nucleotide (nt) long Handles A and B. Preparation of Handles and the RNA is described in the section above. The streptavidin coated polystyrene bead (diameter 1.5-1.9 μm, Spherotech Inc.) is fixed on a micropipette via suction, and the anti-digoxigenin coated bead (diameter 4.0-4.9 μm, Spherotech Inc.) is held in the dual counter-propagating laser beam. The trap stiffness, K is measured at 0.04-0.06 pN/nm from the power spectrum analysis of the Brownian motion of the trapped bead. For power spectrum analysis, a polystyrene bead with diameter ˜4.6 μm is trapped in the counter-propagating laser beam in aqueous buffer with a fixed trap position. […] The average from 10 beads yielded K˜0.049±0.0008 pN/nm, and the stoke's drag coefficient, y=0.0364±0.0002 pN. s/μm. […] However, the autocorrelation time (τ0) defined as the τ1=1/2πfc as described by Zoldak et al., “Ultrafast folding kinetics and cooperativity of villin headpiece in single-molecule force spectroscopy”. Proc. Natl. Acad. Sci. U.S.A 110, 18156 (2013) sets the detection limit for the observable kinetics, which is different from the sampling frequencies. […] The ACF for the time series of force signal, Fi, with sampling rate δ and N data points, is calculated as,
In a constant-force (CF) experiment, the RNA is held at a preset force through feedback control. The preset force typically fluctuated around the mean with a standard deviation ±0.15 pN. In this mode, data is recorded from 4-40 kHz to capture the fast intermediates. The plots are shown as extension vs. time (as in FIG. 6A). In force-jump (FJ) assay, the force is suddenly jumped from one force to another, and then held constant thereafter, as shown in FIGS. 23A-B.
All FR, CF and FJ experiments were carried out at an ambient temperature, 25±0.5° C. The buffer in the microfluidics contained 10 mM Tris-HCl, pH 7.5 at 25° C., 250 mM NaCl, 3 mM MgCl2, and purine concentrations as indicated in wild-type aptamer. Unless stated otherwise, Mg^2+ concentration in the buffer was maintained at 3 mM in all experiments. The buffer in mutant m1 contained 5 mm Mg^2+ and 1 μM G, and in m3 contained 5 mM Mg^2+ and 200 nM Guanine. For the remaining m2, m4, m5 and m6 mutants, the buffer in single-molecule experiments was supplemented only with 3 mM Mg^2+ and 200 nM Guanine.
In the force-ramp experiment, the trap was moved away (pull cycle) from the micropipette at 200 nm/sec, which corresponded to a loading rate of 7-8 pN/sec. This movement of the trap exerted a tension at the ends of the tethered RNA aptamer. […] In the constant-force (CF) experiment, the RNA was held at a preset force (FIG. 6A). The loading rate in CF experiments was zero. The preset force typically fluctuated around the mean with standard deviation ±0.15 pN. […]

lac Z expression = experiment: β-galactosidase reporter assay (xpt-lacZ fusion); type: cell-based, B. subtilis; settings: presence and absence of guanine; B. subtilis
Method: Kissing-loop mutants were analyzed to determine whether they can exert riboswitch activities by controlling transcription termination, given that the guanine binding was retained in all of them. To test this, a β-galactosidase reporter assay was performed in B.subtilis. […] The gene expression is repressed in wild-type due to the transcription termination in the presence of guanine. […] The fast kissing dynamics between the L2-L3 probably have a stabilizing effect on P1, and therefore an increase in the transcription termination is observed. […] This underscores that the L2-L3 dynamics are directly involved in the P1-helix formation, which affects the terminator hairpin downstream that ultimately results in an alteration of the riboswitch activities.
To assess if the aptamer mutants can exert a transcriptional control similar to the previously reported wild-type xpt-pbuX riboswitch, a xpt-lacZ fusion was constructed as described by Mandal et al., “Riboswitches control fundamental biochemical pathways in Bacillus subtilis and other bacteria”. Cell 113, 577-586 (2003). Briefly, nts −121 to +197 relative to the transcriptional start site of the xpt-pbuX operon from B. subtilis 1A1 (BGSC, Columbus, Ohio) was PCR amplified and cloned upstream of the lacZ reporter gene into pDG1661 vector. After confirming the cloned sequence, plasmid variants were integrated into the amyE locus of the 1A1 strain. Transformants were selected for double markers, specifically for chloramphenicol (5 μg/ml) resistance and sensitivity to spectinomycin (100 μg/ml). Selected B. subtilis colonies were subsequently grown in minimal media (25 g/L K2HPO4·3H2O, 6 g/L KH2PO4, 1 g/L sodium citrate, 0.2 g/l MgSO4·7H2O, 2 g/L Na2SO4, 50 μM FeCl3, 2 μM MnCl2, 50 μg/ml L-Tryptophan, 50 μg/ml L-Lysine, 50 μg/ml L-Methionine, 0.4 g/100 ml glucose, and 0.2 g/100 ml glutamate) at 37° C. with vigorous shaking. Purines were added at a final concentration of 0.1 mg/ml. Cells were harvested at mid-logarithmic growth phase (A600˜0.1-0.4), and resuspended in the above buffer for the reporter assay. The color development was recorded by measuring absorbance, A420 at the end of the reaction with appropriate controls. Data is represented in Miller Units calculated from the following relation:
[formula] where Δt is the total duration taken in the substrate cleavage by […], measured as absorbance, A420. The Miller Units shown in FIG. 4A represents mean±standard deviation from 3 independent experiments, wherein each independent experiment was performed in duplicate.

[3] = transition C′A (merged C′B and BA), F 6.1 pN, 5 mM Mg^2+
[4] = transition C′A (merged C′B and BA), F 6.1 pN, 3 mM Mg^2+
[5] = transition BA (P1 folding), F 8.5 pN, 3 mM Mg^2+
[6] = transition C′B (L2-L3 folding), F 8.5 pN, 3 mM Mg^2+
[7] = transition DC (P3 folding), F 12.0 pN, 3 mM Mg^2+
[8] = transition ED (P2 folding), F 13.5 pN, 3 mM Mg^2+

B1: m3: m3 mutant guanine sensing aptamer RNA (SEQ ID NO: 4); G38 replaced with adenine in the L2 loop (nucleic acid)
chain: CACUCAUAUAAUCGCGUGGAUAUGACACGCAAGUUUCUACCGGGCACCGUAAAUGUCCGACUAUGGGUG
modifications: RNA, backbone and methylation of C not given here
notes: G38 replaced with adenine in the L2 loop
- KD off relative to wild-type [1]: ~18 fold
- Equilibrium force F^eq ([2]; transition C′A (merged C′B and BA), 5 mM Mg^2+, 200 nM G (rates at 6.1 pN)): 6 pN and 6.1 ± 0.02 pN
- Folding rate kf [2, 3]: 0.8 ± 0.05 s⁻¹
- Transition distance ΔX [2, 3]: 12.5 ± 0.4 nm
- Unfolding rate ku [2, 3]: 0.69 ± 0.05 s⁻¹
- ΔG (0) ([2]; transition C′A (merged C′B and BA), from data at 6.1 pN, 5 mM Mg^2+): −12.7 ± 0.6 kBT
- lac Z expression / transcriptional control (in words) (lac Z expression): completely de-repressed

B2: m2: m2 mutant guanine sensing aptamer RNA (SEQ ID NO: 3); G37A in L2 and C61U in L3 (nucleic acid)
chain: CACUCAUAUAAUCGCGUGGAUAUAGCACGCAAGUUUCUACCGGGCACUGUAAAUGUCCGACUAUGGGUG
modifications: RNA, backbone and methylation of C not given here
notes: G37A in L2 and C61U in L3
- KD off relative to wild-type [1]: ~9 fold
- Kd ([1]; 30° C., 50 mM K^+ Hepes pH 7.5, 100 mM KCl, 10 mM MgCl2, read-out: KD for guanine): 36 ± 0.2 nM
- Equilibrium force F^eq ([2]; transition C′A (merged C′B and BA), 3 mM Mg^2+, 200 nM G (rates at 6.1 pN)): 6 pN and 6.0 ± 0.03 pN
- Folding rate kf [2, 4]: 0.53 ± 0.06 s⁻¹
- Transition distance ΔX [2, 4]: 12.4 ± 0.4 nm
- Unfolding rate ku [2, 4]: 0.8 ± 0.11 s⁻¹
- ΔG (0) ([2]; transition C′A (merged C′B and BA), from data at 6.1 pN, 3 mM Mg^2+): −11.9 ± 0.6 kBT
- lac Z expression / transcriptional control (in words) (lac Z expression): completely de-repressed

B3: m8: m8 mutant guanine sensing aptamer RNA (SEQ ID NO: 9); A19G and U77C in the P1 hairpin (nucleic acid)
chain: CACUCGUAUAAUCGCGUGGAUAUGGCACGCAAGUUUCUACCGGGCACCGUAAAUGUCCGACUACGGGUG
modifications: RNA, backbone and methylation of C not given here
notes: A19G and U77C in the P1 hairpin
- Equilibrium force F^eq ([2]; transition BA (P1 folding), 3 mM Mg^2+, 200 nM G (rates at 8.5 pN)): 8.8 ± 0.2 pN
- Folding rate kf [2, 5]: 0.4 ± 0.05 s⁻¹
- Unfolding rate ku [2, 5]: 0.2 ± 0.05 s⁻¹
- Transition distance ΔX ([2]; transition BA (P1 folding), F 8.5 pN, 3 mM Mg^2+, no helix width adjustment): 9.5 ± 0.3 nm
- ΔG (0) ([2]; transition BA (P1 folding), from data at 8.5 pN, 3 mM Mg^2+): −14.3 kBT and −14.3 ± 0.7 kBT
- Equilibrium force F^eq ([2]; transition C′B (L2-L3 folding), 3 mM Mg^2+, 200 nM G (rates at 8.5 pN)): 8.4 ± 0.3 pN
- Folding rate kf [2, 6]: 1.4 ± 0.2 s⁻¹
- Transition distance ΔX [2, 6]: 3.6 ± 0.2 nm
- Unfolding rate ku [2, 6]: 1.5 ± 0.2 s⁻¹
- ΔG (0) ([2]; transition C′B (L2-L3 folding), from data at 8.5 pN, 3 mM Mg^2+): −7.4 ± 0.5 kBT
- Equilibrium force F^eq ([2]; transition DC (P3 folding), 3 mM Mg^2+, 200 nM G (rates at 12.0 pN)): 11.8 ± 0.1 pN
- Folding rate kf [2, 7]: 15.9 ± 0.4 s⁻¹
- Transition distance ΔX [2, 7]: 7.7 ± 0.2 nm
- Unfolding rate ku [2, 7]: 17.5 ± 0.5 s⁻¹
- ΔG (0) ([2]; transition DC (P3 folding), from data at 12.0 pN, 3 mM Mg^2+): −15.5 ± 0.6 kBT
- Equilibrium force F^eq ([2]; transition ED (P2 folding), 3 mM Mg^2+, 200 nM G (rates at 13.5 pN)): 13.5 ± 0.03 pN
- Folding rate kf [2, 8]: 10.5 ± 0.4 s⁻¹
- Transition distance ΔX [2, 8]: 7.0 ± 0.2 nm
- Unfolding rate ku [2, 8]: 13.2 ± 0.5 s⁻¹
- ΔG (0) ([2]; transition ED (P2 folding), from data at 13.5 pN, 3 mM Mg^2+): −16.0 ± 0.7 kBT
- lac Z expression / transcriptional control (in words) (lac Z expression): stringent control

— patent US11905559B2, “Materials and methods for controlling gene expression” (priority 2016, dated 2024)
